{
  "source": "ChEMBL document CHEMBL1122728",
  "about": "“Derivatives of 2-methyl-1,4-naphthoquinone as substrates and inhibitors of the vitamin K dependent carboxylase” (J Med Chem, 1984)",
  "proteins": {"B1": {"name": "Vitamin K-dependent gamma-carboxylase (Rattus norvegicus), O88496 (protein)", "chain": "MAVHRGSARAAPASDKVQKNKPAQTSGLEQGSRMARIFGFEWADLSSWQSVVTLLNRPTDPANLAVFRFLFAFLMLLDIPQERGLSSLDRKYLDGLDVCRFPLLDALRPLPLDWMYLVYTIMFLGALGMMLGLWYRLSCMLFLLPYWYVFLLDKTSWNNHSYLYGLLAFQLTFMDANHYWSVDGLLSAQKKNAHVPLWNYTVLRGQIFIVYFIAGVKKLDADWVEGYSMEHLSRHWLFSPFKLVLSEELTSLLVVHWCGLLLDLSAGFLLFFDASRPIGLVFVSYFHCMNSQLFSIGMFPYVMLASSPLFCSAEWPRKLVARCPKRLQELLPAKAAPRPSASCVYKRARAKAGQKPGLRHHLGTVFTLLYLLEQLFLPYSHFLTQGYNNWTNGLYGYSWDMMVHSRSHQHVKITYRDGLTGELGYLNPGVFTQSRRWKDHADMLKQYATCLSLLLPKYNVTEPQIYFDIWVSINDRFQQRLFDPRVDIVQAVWSPFRRTPWVQPLLMDLSPWRTKLQDIKSSLDNHTEVVFIADFPGLHLENFVSEDLGNTSIQLLQGEVTVELVAEQKNQTLREGEKMQLPAGEYHKVYTVSSSPSCYMYIYVNTTEVALEQDLAYLQELKEKVENGSETGPLPPELQPLLEGEVKGGPEPTPLVQTFLRRQRKLQEIERRRNSPLHERFLRFVLRKLYVFRRSFLMTRISLRNLLFGRPSLEQLAQEVTYANLRPFEPVDESSASNTDSSDPHPSEPDSEHVHSEL"}},
  "key": {"[1]": {"compound": "COC(=O)[C@H](CC(C)C)NC(=O)[C@H](CCC(=O)O)NC(=O)[C@H](CCC(=O)O)NC(=O)CCCC1=C(C)C(=O)c2ccccc2C1=O", "test": "(§1) In vitro inhibitory effect Vitamin K dependent carboxylase of Phe-Leu-Glu-Glu-Leu in rat microsomal protein", "type": "microsomes", "conditions": "Microsome"}, "[2]": {"compound": "COC(=O)[C@H](CC(C)C)NC(=O)[C@H](CCC(=O)O)NC(=O)[C@H](CCC(=O)O)NC(=O)CCCC1=CC(=O)c2ccccc2C1=O", "test": "as §1", "type": "microsomes", "conditions": "Microsome"}},
  "note": "Several values for one entry are separate records, joined by “and”; a condition that tells them apart may be missing. Equal entries are not always repeated.",
  "data": [
    {"protein": "B1", "values": [
      {"measurement": "Km", "setting": "[1]", "value": "44 µM and < 50 µM"},
      {"measurement": "Km", "setting": "[2]", "value": 85, "unit": "µM"}
    ]}
  ]
}
